The values below come from patent US20130089559A1 (4 ANTIBODY, published 2013).

Assay [1] addresses gB of hCMV clinical isolate Altu, on virions (human cytomegalovirus clinical isolate …). Kind of assay: cell-based or functional assay.
The target in assay [2] is T1, gB of hCMV strain AD169, on virions (human cytomegalovirus strain AD169, UniProt P06473 32-906). In words: cell-based or functional assay.
The target of assay [3] is gB of hCMV strain Towne, on virions (human cytomegalovirus strain Towne, UniProt P13201 23-907). In words: cell-based or functional assay.
gB of hCMV strain Towne, on virions, sequence (P13201 23-907 limits assumed): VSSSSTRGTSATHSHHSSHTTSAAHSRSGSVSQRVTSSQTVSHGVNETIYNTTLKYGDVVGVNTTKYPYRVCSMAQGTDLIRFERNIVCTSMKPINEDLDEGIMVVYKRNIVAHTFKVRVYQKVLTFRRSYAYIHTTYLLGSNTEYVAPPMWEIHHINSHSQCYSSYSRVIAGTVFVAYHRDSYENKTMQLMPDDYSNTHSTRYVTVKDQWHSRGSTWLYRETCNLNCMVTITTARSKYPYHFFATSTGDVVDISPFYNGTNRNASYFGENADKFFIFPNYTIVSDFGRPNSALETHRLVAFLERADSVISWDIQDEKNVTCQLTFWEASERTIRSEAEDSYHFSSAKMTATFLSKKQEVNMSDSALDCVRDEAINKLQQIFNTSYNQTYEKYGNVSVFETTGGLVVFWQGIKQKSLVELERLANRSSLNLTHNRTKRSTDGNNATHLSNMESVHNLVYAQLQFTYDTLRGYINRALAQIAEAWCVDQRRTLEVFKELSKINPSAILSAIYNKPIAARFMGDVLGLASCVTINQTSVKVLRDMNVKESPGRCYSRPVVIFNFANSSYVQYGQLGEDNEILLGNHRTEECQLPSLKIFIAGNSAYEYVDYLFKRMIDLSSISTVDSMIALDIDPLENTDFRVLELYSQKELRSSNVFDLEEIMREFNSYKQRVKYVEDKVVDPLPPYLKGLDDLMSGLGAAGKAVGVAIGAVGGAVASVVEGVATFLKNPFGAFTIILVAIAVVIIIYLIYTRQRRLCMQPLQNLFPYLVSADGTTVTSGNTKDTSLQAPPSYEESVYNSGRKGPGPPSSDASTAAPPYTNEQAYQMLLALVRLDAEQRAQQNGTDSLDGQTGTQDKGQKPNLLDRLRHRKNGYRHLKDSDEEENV
The target in assay [4] is T1, gB of hCMV strain AD169, on virions. In words: cell-based or functional assay. This is another data set of the same source.
Assay [5] concerns the target gB of hCMV isolate TB40E, on virions (human cytomegalovirus isolate TB40E). In words: cell-based or functional assay.
Assay [6] deals with T1, gB of hCMV strain AD169, on virions. In words: cell-based or functional assay. The source holds these as a separate data set.
Assay [7] addresses T2, AD-4 mutant protein with lysine residues 378 and 379 exchanged for alanine, eukaryotic expression (human cytomegalovirus strain AD169, UniProt P06473 121-438).
T2 chain: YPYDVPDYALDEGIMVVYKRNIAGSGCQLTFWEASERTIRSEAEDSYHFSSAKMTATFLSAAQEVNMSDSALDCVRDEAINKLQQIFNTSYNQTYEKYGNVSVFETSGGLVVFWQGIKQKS
Kind of assay: indirect immunofluorescence on transiently expressed AD-4 mutant proteins.

T1 sequence (P06473 32-906 limits assumed): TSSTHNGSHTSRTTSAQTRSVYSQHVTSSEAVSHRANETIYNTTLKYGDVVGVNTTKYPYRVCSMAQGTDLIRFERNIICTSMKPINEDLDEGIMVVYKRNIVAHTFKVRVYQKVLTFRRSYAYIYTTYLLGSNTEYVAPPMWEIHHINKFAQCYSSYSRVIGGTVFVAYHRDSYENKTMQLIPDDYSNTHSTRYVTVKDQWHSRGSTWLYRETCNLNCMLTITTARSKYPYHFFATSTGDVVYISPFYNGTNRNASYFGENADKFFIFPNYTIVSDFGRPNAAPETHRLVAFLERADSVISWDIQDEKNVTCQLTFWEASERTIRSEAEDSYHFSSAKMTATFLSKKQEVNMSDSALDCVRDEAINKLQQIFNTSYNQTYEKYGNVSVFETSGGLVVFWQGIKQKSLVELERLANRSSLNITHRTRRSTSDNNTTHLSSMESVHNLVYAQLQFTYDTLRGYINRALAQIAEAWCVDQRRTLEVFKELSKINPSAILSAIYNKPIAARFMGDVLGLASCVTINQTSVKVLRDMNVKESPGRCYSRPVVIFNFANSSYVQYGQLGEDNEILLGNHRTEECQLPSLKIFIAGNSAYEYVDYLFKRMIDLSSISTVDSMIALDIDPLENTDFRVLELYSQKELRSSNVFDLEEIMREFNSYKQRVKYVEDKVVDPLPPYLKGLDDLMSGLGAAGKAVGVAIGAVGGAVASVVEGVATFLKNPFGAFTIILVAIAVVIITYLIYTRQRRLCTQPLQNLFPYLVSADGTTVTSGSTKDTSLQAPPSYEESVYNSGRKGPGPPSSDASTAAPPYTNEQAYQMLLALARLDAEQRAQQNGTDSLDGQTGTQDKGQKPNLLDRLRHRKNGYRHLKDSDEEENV

B1: Ab-14 (antibody, V domains shown)
VH: QVQLVQSEAEVEKPGASVKVSCKASGYTFTDYYMNWVRQAPGQGLEWMGCINPHSGGTNYAQKFQGRVTMTRDTSISTAYMELSRLKSDDTAVYYCARDGAKTVTTFGASLLYYYDIMDVWGQGTLVTVSS
VL: QSVLTQPPSVSAAPGQKVTISCSGSSSNIGKNYVSWYQHFPGTAPKLLIYDNNKRPSGIPDRFSGSKSGTSATLGITGLQTGDEADYYCATWDRSLSVVFGGGTKVTVL
notes: also called Antibody Ab-14; SM3-1 VH with SM3-1 VL
With B1, the figures for the “50% neutralising activity (immediate-early antigen immunofluorescence, HFF)” value in assay [1], in assay [2] and in assay [3] were 0.6 µg/mL, 1.5 µg/mL and 1.3 µg/mL, respectively. Besides, the “50% neutralising activity, fibroblast cells (HFFs)” value in assay [4] worked out at 0.4 µg/mL. Further, in assay [5], the “50% neutralising activity, dendritic cells (lowest of six donors)” value stood at 0.2 µg/mL. Also, in assay [5], the “50% neutralising activity, endothelial cells (HUVECs)” value turned out to be 1 µg/mL. The “50% Neutralising activity (luciferase assay, HFF)” value in assay [6] stood at 0.4 µg/mL. The binding result in assay [7] is reported as “no binding”.
